Results: patent publication US20090048324
Positions count from the first letter of the chain named. Names may count otherwise.

T1: wild type human porphobilinogen synthase (PBGS), parent construct N59/C162A
T1 chain: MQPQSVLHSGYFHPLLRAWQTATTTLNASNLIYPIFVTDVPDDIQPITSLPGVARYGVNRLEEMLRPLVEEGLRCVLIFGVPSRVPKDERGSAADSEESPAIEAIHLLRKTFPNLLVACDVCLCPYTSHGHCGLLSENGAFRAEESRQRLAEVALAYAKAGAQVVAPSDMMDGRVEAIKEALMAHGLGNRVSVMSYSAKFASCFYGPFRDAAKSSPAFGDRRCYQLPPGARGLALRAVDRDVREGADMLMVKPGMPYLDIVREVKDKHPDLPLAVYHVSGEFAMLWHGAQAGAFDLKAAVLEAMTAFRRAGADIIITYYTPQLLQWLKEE

B1: pea (Pisum sativum) porphobilinogen synthase (protein)
chain: SLPIQRRPRRNRRSPALRSAFQETTLSPANFVYPLFIHEGEEDTPIGAMPGCYRLGWRHGLLEEVAKARDVGVNSVVLFPKIPDALKTPTGDEAYNEDGLVPRSIRLLKDKYPDLIIYTDVALDPYSSDGHDGIVREDGVIMNDETVHQLCKQAVAQARAGADVVSPSDMMDGRVGAMRVALDAEGFQHVSIMSYTAKYASSFYGPFREALDSNPRFGDKKTYQMNPANYREALTEMREDESEGADILLVKPGLPYLDIIRLLRDNSPLPIAAYQVSGEYSMIKAGGALKMIDEEKVMMESLLCLRRAGADIILTYFALQAARTLCGEKR
B2: human PBGS variant F12L (protein)
chain: T1 chain with F12L

Columns and labels:
[1] = biological target: T1, wild type human porphobilinogen …

Row | Protein | K(0.5) of the protein concentration dependent specific activity (P30124) | K(0.5) of the protein concentration dependent specific activity in the presence of 5 µM morphlock-1 (P30124) | protein concentration giving half maximal specific activity (P30124) | protein concentration giving half maximal specific activity after 30 minutes with 30 µM rosmarinic acid (P30124) | specific activity as a function of pea PBGS concentration, DMSO control (filled circles) (P30124) | specific activity as a function of pea PBGS concentration, with morphlock-1 (open circles) (P30124) | specific activity as a function of pea PBGS subunit concentration (P30124) | specific activity over time after addition of ALA (filled triangles, Pool I) [1] | specific activity over time after addition of ALA (filled triangles, Pool II) [1]
1 | B1 | K(0.5) of 0.064 µM PBGS | more than doubles the K(0.5) to 0.134 µM pea PBGS | half maximal activity at 3.5 µg/ml PBGS | half maximal activity at 13.5 µg/ml PBGS | rises from near 10 at about 0.008 µM to about 250 at about 0.8 µM; fitted line levels at about 275 µmol h-1 mg-1 toward 10 µM (log axis); the half-maximal K(0.5) is printed in the text | curve shifted to the right of the DMSO curve: near 0 at about 0.008 µM, about 240 at about 0.8 µM; fitted line reaches about 290 µmol h-1 mg-1 at 10 µM (log axis); the half-maximal K(0.5) is printed in the text | rises from about 5 at 0.001 µM to a plateau of about 220 at 0.7-1 µM on a log axis | – | –
2 | B2 | – | – | – | – | – | – | – | rises from about 1 at 0 min (fit) and about 2.5 at 15 min to a plateau of about 7.5 µmole h-1 mg-1 by 200-270 min | rises from about 18.3 at about 2 min to a plateau of about 22.2-22.4 µmole h-1 mg-1 from 30-45 min up to 150 min
